No end group written: not given here.
How the values were obtained:
HLA-A*0301 = target: T1, HLA-A*0301 (Homo sapiens, UniProt P04439); assay: purified HLA class I binding assay, A*0301
T1 construct: endogenous in cells; host or cells: GM3107

HLA-A*1101 = HLA-A*1101 (Homo sapiens, UniProt P04439, A114D/D185E/E176A/F33Y/L180Q/S129P/T187R); assay: purified HLA class I binding assay, A*1101; settings: for A*1101 binding: HIV A11 motif peptides (GAG)
[1] = Table XVII, HIV A11 motif peptides, binding value for purified HLA-A*1101, unit not given
[2] = Table XVI, HIV POL-derived peptides, unit not given
[3] = Table XVII, HIV A11 motif peptides, binding value for A*1101, printed without unit
[4] = HIV POL-derived A03 motif peptides, binding value for purified HLA-A*0301, unit not given
[5] = HIV A03 motif peptides, Table XVI, binding value unit not given
[6] = HIV A11 motif peptides, Table XVII, unit not given
[7] = Table XVI, binding value for purified HLA-A*0301, unit not given
[8] = Table XVII, HIV A11 motif peptides, binding value A*1101, unit not given
[9] = HIV A03 supermotif peptides, binding value, no unit given
[10] = HIV A03 supermotif peptides, Table IX, unit not given
[11] = Table IX, HIV A03 super motif peptides, binding value, unit not given
[12] = binding value to purified HLA-A*1101 in Table XVII, unit not given

## KVYLAWVPAII
HLA-A*0301; HIV A03 motif peptides, Table XVI, column A0301, unit not given
  A0301 binding: 8.6000

## TYQCTIIGIK
HLA-A*1101; [1]
  A*1101 (binding information): 0.0460

## LGIIQAQVDK
HLA-A*0301; [2]
  A0301 (binding information, HIV A03 motif peptides): 0.0007

## LTEDRWNKPQ
HLA-A*0301; HIV A03 motif peptides, Table XVI, unit not given
  A0301 (binding information): 0.0390
HLA-A*1101; [3]
  A*1101 (binding information): 0.0130

## TTPDKKIIQK
HLA-A*0301; [4]
  A0301 (HIV A03 Motif Peptides with Binding Information): 0.0002

## TACQGVGGPG
HLA-A*0301; [5]
  A0301 (binding information): 0.0001
HLA-A*1101; [6]
  A*1101 (binding information): 0.0001

## QLDCTIILEGK
HLA-A*0301; [7]
  A0301 (binding information, HIV A03 motif peptides): 0.0010
HLA-A*1101; [8]
  A*1101 (binding information): 0.0003

## QIYQIEPFKNLK
HLA-A*0301; [2]
  A0301 (binding information, HIV A03 motif peptides): 0.2800

## QIYQEPPKNLK
HLA-A*0301; [9]
  A*0301 binding information: 0.2800
HLA-A*1101; [9]
  A*1101 (binding information): 0.2900

## TAVQMAVFIII
HLA-A*0301; [7]
  A0301 (binding information, HIV A03 motif peptides): 0.0004
HLA-A*1101; [8]
  A*1101 (binding information): 0.0110

## LYSAGIRK
HLA-A*1101; binding to purified HLA-A*1101, unit not given
  A*1101 (HIV A11 Motif Peptides with Binding Information): 0.0054

## IIVASGYIEA
HLA-A*0301; [4]
  A0301 (HIV A03 Motif Peptides with Binding Information): 0.0003

## LLQLIVWGIK
HLA-A*0301; [10]
  A*0301 binding information: 0.0055
HLA-A*1101; [10]
  A*1101 (binding information): 0.0110

## GIIQAQVDK
HLA-A*0301; [2]
  A0301 (binding information, HIV A03 motif peptides): 0.0009

## KIWPSIIKGR
HLA-A*0301; [5]
  A0301 (binding information): 0.0770

## GIPIIPAGLK
HLA-A*1101; [8]
  A*1101 (binding information): 0.0650

## MVIIQAISPR
HLA-A*0301; [5]
  A0301 (binding information): 0.1800
HLA-A*1101; Table XVII, unit not given
  A*1101 binding: 0.0670

## VTVYYGVPVW
HLA-A*0301; purified HLA-A*0301 binding value as printed in Table XVI, unit not given
  A0301 (binding information, HIV A03 motif peptides): 0.8600
HLA-A*1101; [1]
  A*1101 (binding information): 4.1000

## KVYLAWVPAIIK
HLA-A*0301; [9]
  A*0301 binding information: 8.6000
HLA-A*1101; [9]
  A*1101 (binding information): 2.3000

## ATLYCVIIQR
HLA-A*0301; [10]
  A*0301 binding information: 0.0150
HLA-A*0301; binding value to purified HLA-A*0301, unit not given
  A0301 (HIV A03 Motif Peptides with Binding Information): 0.0150
HLA-A*1101; [10]
  A*1101 (binding information): 0.7100
HLA-A*1101; Table XVII, unit not given
  A*1101 binding: 0.7100

## KLVDFRELNK
HLA-A*0301; [11]
  A*0301 binding information: 0.5100
HLA-A*0301; [7]
  A0301 (binding information, HIV A03 motif peptides): 0.5100
HLA-A*1101; [6]
  A*1101 (binding information): 0.0900
HLA-A*1101; [11]
  A*1101 (binding information): 0.0900

## FLGKIWPSIIK
HLA-A*0301; [5]
  A0301 (binding information): 0.0200
HLA-A*1101; Table XVII, unit not given
  A*1101 binding: 0.0013

## ILQQLLFIIIF
HLA-A*0301; Table XVI, binding value for HLA-A*0301, unit not given
  A0301 (binding information, HIV A03 motif peptides): 0.0130

## KVKQWPLTEE
HLA-A*0301; [4]
  A0301 (HIV A03 Motif Peptides with Binding Information): 0.0750
HLA-A*1101; [8]
  A*1101 (binding information): 0.0330

## SDLEIGQIIR
HLA-A*1101; [8]
  A*1101 (binding information): 0.0001

## IIGVYYDPSK
HLA-A*1101; [8]
  A*1101 (binding information): 0.0001

## NTPVPAIK
HLA-A*1101; [12]
  A*1101 (HIV A11 Motif Peptides with Binding Information): 0.0003

## IVASCDKCQLK
HLA-A*0301; [9]
  A*0301 binding information: 0.0970
HLA-A*0301; [4]
  A0301 (HIV A03 Motif Peptides with Binding Information): 0.0970
HLA-A*1101; [9]
  A*1101 (binding information): 0.1000
HLA-A*1101; [8]
  A*1101 (binding information): 0.1000

## YVDRIFYKTLR
HLA-A*0301; [10]
  A*0301 binding information: 0.0003
HLA-A*1101; [10]
  A*1101 (binding information): 0.0006

## FVNIPPLVK
HLA-A*1101; [8]
  A*1101 (binding information): 0.0660

## WTYQIYQEPF
HLA-A*0301; [2]
  A0301 (binding information, HIV A03 motif peptides): 0.9200
HLA-A*1101; [12]
  A*1101 (HIV A11 Motif Peptides with Binding Information): 0.0540

## DVKQLTEAVQ
HLA-A*0301; [2]
  A0301 (binding information, HIV A03 motif peptides): 0.0048
HLA-A*1101; [12]
  A*1101 (HIV A11 Motif Peptides with Binding Information): 0.0240

## VASCDKCQLK
HLA-A*0301; [4]
  A0301 (HIV A03 Motif Peptides with Binding Information): 0.0004
HLA-A*0301; [11]
  A*0301 binding information: 0.0004
HLA-A*1101; [11]
  A*1101 (binding information): 0.0004
HLA-A*1101; [8]
  A*1101 (binding information): 0.0004

## PCIMDGPKVK
HLA-A*1101; [8]
  A*1101 (binding information): 0.0001

## GIPIIPAGLKK
HLA-A*0301; [4]
  A0301 (HIV A03 Motif Peptides with Binding Information): 0.0110
HLA-A*1101; [8]
  A*1101 (binding information): 0.1700

## MTKILIEPFR
HLA-A*1101; [8]
  A*1101 (binding information): 0.0160

## KTKGIIRGSII
HLA-A*1101; [3]
  A*1101 (binding information): 0.0001

## AANREIKLGK
HLA-A*1101; [12]
  A*1101 (HIV A11 Motif Peptides with Binding Information): 0.0016

## VAVIIVASGY
HLA-A*0301; [7]
  A0301 (binding information, HIV A03 motif peptides): 0.0004
HLA-A*1101; [8]
  A*1101 (binding information): 0.0001

## ANRIETKLGK
HLA-A*1101; [12]
  A*1101 (HIV A11 Motif Peptides with Binding Information): 0.0001

## AVDLSIIFLK
HLA-A*0301; HIV A03 motif peptides, Table XVI, binding value to purified HLA-A*0301, unit not given
  A0301 (binding information): 0.0740
HLA-A*1101; [6]
  A*1101 (binding information): 1.1000

## RIVELLGRR [1273.04]
HLA-A*0301
  IC50: 0.2 µM
HLA-A*1101
  IC50: 0.6 µM

## QVRDQAEIILK
HLA-A*0301; [4]
  A0301 (HIV A03 Motif Peptides with Binding Information): 0.0089

## WTVQVIPLPEK
HLA-A*0301; HIV A03 motif peptides, binding value to HLA-A*0301 as printed, no unit given
  A0301 (binding information): 0.0011

## LGIPIIPAGLK
HLA-A*1101; [8]
  A*1101 (binding information): 0.0150

## MGYELIIPDK
HLA-A*0301; [7]
  A0301 (binding information, HIV A03 motif peptides): 0.0640

## ISPILTVPVK
HLA-A*1101; [8]
  A*1101 (binding information): 0.0310

Source: US20050271676A1, “Inducing cellular immune responses to human immunodeficiency virus-1 using peptide and nucleic acid compositions” (Epimmune Inc., priority 1993, published 2005)
